Tests used:
[1] = target: TIM-1 (T cell, immunoglobulin domain and mucin domain 1), cell membrane-bound (human) (UniProt Q96D42); assay: cell-based or functional assay
[2] = target: TIM-1 antigen, soluble extracellular domain of TIM-1 (CG57008-02) with a V5-HIS tag (human) (UniProt Q96D42); assay: BIAcore 2000, 25 C, mAb captured on goat anti-human surface, TIM-1 antigen injected at 292 nM
Chain of TIM-1 antigen, soluble extracellular domain of TIM-1 (CG57008-02) with a V5-HIS tag (human) (Q96D42 other isoform, or with tags, fused parts or gaps): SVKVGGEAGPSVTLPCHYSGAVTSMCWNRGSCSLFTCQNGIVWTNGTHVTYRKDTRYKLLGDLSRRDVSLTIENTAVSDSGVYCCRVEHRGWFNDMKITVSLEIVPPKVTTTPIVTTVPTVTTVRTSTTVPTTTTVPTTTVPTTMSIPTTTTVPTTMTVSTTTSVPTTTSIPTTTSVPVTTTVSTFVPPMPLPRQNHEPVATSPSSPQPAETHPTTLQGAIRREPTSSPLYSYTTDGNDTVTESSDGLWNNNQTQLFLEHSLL

Chain of TIM-1 (T cell, immunoglobulin domain and mucin domain 1), cell membrane-bound (human) (Q96D42 21-364): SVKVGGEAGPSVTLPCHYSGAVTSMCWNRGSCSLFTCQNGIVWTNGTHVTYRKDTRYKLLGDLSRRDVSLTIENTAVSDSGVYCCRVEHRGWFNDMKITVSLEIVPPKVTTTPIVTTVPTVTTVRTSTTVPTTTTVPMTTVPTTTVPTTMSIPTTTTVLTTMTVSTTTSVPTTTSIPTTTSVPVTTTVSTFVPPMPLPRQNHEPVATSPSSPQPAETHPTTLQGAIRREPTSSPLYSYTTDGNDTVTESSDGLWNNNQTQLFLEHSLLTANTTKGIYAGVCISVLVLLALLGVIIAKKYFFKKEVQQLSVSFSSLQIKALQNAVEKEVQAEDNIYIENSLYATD

B1: Auristatin E (AE)-conjugated anti-TIM-1 mAb 2.70.2 (antibody, human IgG4, kappa, V domains shown)
VH: QVQLVESGGGVVQPGRSLRLSCAASGFIFSRYGMHWVRQAPGKGLKWVAVIWYDGSNKLYADSVKGRFTISRDNSKNTLYLQMNSLRAEDTAVYYCARDYYDNSRHHWGFDYWGQGTLVTVSS
VL: DIVMTQTPLSLPVTPGEPASISCRSSRSLLDSDDGNTYLDWYLQKPGQSPQLLIYTLSYRASGVPDRFSGSGSGTDFTLKISRVEAEDVGVYYCMQRVEFPITFGQGTRLEIKR
[1]
  CAKI-1 cell death, clonogenic assay with AE-conjugated antibody, maximum dose: > 90%

B2: anti-TIM-1 monoclonal antibody 2.54 (antibody, V domains shown)
VH: QVQLEQSGGGVVQPGRSLRLSCAASGFTFTNYGLHWVRQAPGKGLDWVAVIWYDGSHKFYADSVKGRFTISRDNSKNTLFLQMNSLRAEDTAVYYCTRDLDYWGQGTLVTVSS
VL: ETQLTQSPGTLSLSPGERVTLSCRASQSVSNNYLAWYQQKPGQAPRLLIYGASSRATGIPDRFSGSGSGTDFTLTISRLEPEDCAECYCQQYGSSLPLTFGGGTKVEIKR
[2]
  Kd: 3.35 nM

B3: Auristatin E (AE)-conjugated anti-TIM-1 mAb 2.59.2 (antibody, V domains shown)
VH: NNNNNQSGPRLVKPSQTLSLTCTVSGGSISSDGYYWSWIRQHPGKGLEWIGYIYYSGSTFYNPSLKSRVAISVDTSKNQFSLKLSSVTAADTAVYYCARESPHSSNWYSGFDCWGQGTLVTVSS
VL: NNNNTQSPDFQSVTPKEKVTITCRASQSIGSRLHWYQQKPDQSPKLLIKYASQSFSGVPSRFSGSGSGTDFTLTINSLEAEDAATYYCHQSSNLPFTFGPGTKVDIKR
[1]
  CAKI-1 cell death, clonogenic assay with AE-conjugated antibody, maximum dose: > 90%
